According to the supplement of paper PMC6757056:
± gives the standard deviation of the averaged measurements.

B1: library; a variant is named by its letters at N, in order (parent)
chain: GCUGUCACCGGUGUAUUACCCUAGUGGUCGACCGGUCUGAUGAGUCUNNNNNNAGACGAAACAGC

Tests used:
[1] = variants of: B1; assay: normalized RNA/DNA level with ligand (relative to sTRSVctl = 100) (log10 (% of sTRSVctl)); ligand: hypoxanthine (xanthine aptamer); higher = less ribozyme self-cleavage, higher mRNA level; conditions: ligand concentration (+) RNA-Seq: 5 mM, HEK293T, reporter: mCherry (pCS4076), ligand present: yes
Method in brief: (§1)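 HEK293T cells received ligand, where used, 1 h before being transfected with 4 µg per 6-well well of library plasmids encoding reporter-linked ribozyme switches. After 72 h, RNA was extracted with EDTA and sequenced. RNA level was derived from RNA reads per DNA read, normalized to a spiked-in non-cleaving sequence or the top sequences, then scaled and log-transformed. Values were ×100 then log10, the top set was 25 sequences, and the minimum was 100 DNA reads.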

[2] = variants of: B1; assay: normalized RNA/DNA level without ligand (relative to sTRSVctl = 100) (log10 (% of sTRSVctl)); ligand: hypoxanthine (xanthine aptamer); higher = less ribozyme self-cleavage, higher mRNA level; conditions: HEK293T, reporter: mCherry (pCS4076), ligand present: no
Method in brief: as §1

[3] = variants of: B1; assay: FACS-Seq fitted mean relative fluorescence mCherry/BFP without ligand (log10 relative fluorescence); ligand: hypoxanthine (xanthine aptamer); higher = higher reporter protein expression; conditions: HEK293T, ligand present: no
Method in brief: (§2)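 HEK293T libraries were lentivirally transduced with an mCherry reporter carrying the ribozyme switch and an EF1α-BFP marker, enriched, and incubated for 48 h with or without ligand before sorting into 6 bins by mCherry/BFP. Genomic DNA from each bin was PCR-amplified, barcoded and sequenced on MiSeq. Fluorescence is the fitted normal mean of the bin counts. The fit used log10(mCherry/BFP), and means were scaled to five spiked-in control ribozymes.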

[4] = variants of: B1; assay: FACS-Seq fitted mean relative fluorescence mCherry/BFP with ligand (log10 relative fluorescence); ligand: hypoxanthine (xanthine aptamer); ligand concentration (+) FACS-Seq: 5 mM; higher = higher reporter protein expression; conditions: HEK293T, ligand present: yes
Method in brief: as §2

| Variant | normalized RNA/DNA level with ligand (log10) [1] | normalized RNA/DNA level without ligand (log10) [2] | FACS-Seq fitted mean (log10) [3] | FACS-Seq fitted mean (log10) [4] |
| --- | --- | --- | --- | --- |
| CAACAA | 1.88 ± 0.03 | 1.701 ± 0.015 | – | – |
| CAACAG | 1.92 ± 0.021 | 1.717 ± 0.013 | – | – |
| AAACAC | 1.885 ± 0.011 | 1.712 ± 0.0056 | – | – |
| AAAUCU | 1.94 ± 0.089 | 1.9 ± 0.039 | – | – |
| AAAUCC | 1.94 ± 0.055 | 1.829 ± 0.0029 | – | – |
| GAAGGU | 1.91 ± 0.068 | 1.73 ± 0.06 | – | – |
| GAAGGC | 1.889 ± 0.016 | 1.52 ± 0.044 | – | – |
| AUUCAU | 1.93 ± 0.049 | 1.8 ± 0.064 | 0.124 ± 0.035 | 0.262 ± 0.046 |
| GUUAGA | 1.905 ± 0.0029 | 1.694 ± 0.0036 | 0.572 ± 0.13 | 0.619 ± 0.075 |
| GUUAGG | 1.8 ± 0.045 | 1.38 ± 0.033 | 0.451 ± 0.026 | 0.648 ± 0.03 |
| AAACUC | 1.95 ± 0.035 | 1.95 ± 0.021 | – | – |
| AAACUA | 1.89 ± 0.043 | 1.7704 ± 0.0017 | – | – |
| GUUGAU | 1.936 ± 0.015 | 1.79 ± 0.021 | 0.224 ± 0.074 | 0.303 ± 0.031 |
| GUUGAG | 1.81 ± 0.019 | 1.34 ± 0.038 | 0.255 ± 0.018 | 0.659 ± 0.082 |
| CAACCU | 1.98 ± 0.049 | 1.911 ± 0.0025 | – | – |
| CAACCC | 1.98 ± 0.012 | 1.855 ± 0.011 | – | – |
| CAACCG | 1.95 ± 0.096 | 1.89 ± 0.028 | – | – |
| CAACCA | 1.95 ± 0.066 | 1.803 ± 0.0098 | – | – |
| CAAAAU | 1.88 ± 0.035 | 1.763 ± 0.0036 | – | – |
| GUUUGG | 1.92 ± 0.03 | 1.57 ± 0.06 | 0.231 ± 0.049 | 0.62263 ± 0.00024 |
| UAAAAG | 1.87 ± 0.025 | 1.627 ± 0.011 | – | – |
| AAAACC | 1.93 ± 0.033 | 1.876 ± 0.018 | – | – |
| GAACUC | 1.9377 ± 0.00012 | 1.9 ± 0.01 | – | – |
| GAACUG | 1.87 ± 0.05 | 1.519 ± 0.0031 | – | – |

| Variant | normalized RNA/DNA level with ligand (log10) [1] | normalized RNA/DNA level without ligand (log10) [2] | FACS-Seq fitted mean (log10) [3] | FACS-Seq fitted mean (log10) [4] |
| --- | --- | --- | --- | --- |
| CAAAUU | 1.95 ± 0.029 | 1.806 ± 0.014 | – | – |
| CAAAUG | 1.913 ± 0.011 | 1.82 ± 0.041 | – | – |
| CAAGGA | 1.912 ± 0.012 | 1.79 ± 0.044 | – | – |
| CAAGGG | 1.72 ± 0.036 | 1.28 ± 0.043 | – | – |
| UUUAGU | 1.93 ± 0.043 | 1.83 ± 0.064 | 0.632 ± 0.16 | 0.638 ± 0.11 |
| UUUAGG | 1.9004 ± 0.0014 | 1.83 ± 0.0068 | 0.0978 ± 0.0074 | 0.462 ± 0.026 |
| UUUAGC | 1.95 ± 0.061 | 1.88 ± 0.037 | 0.28 ± 0.015 | 0.555 ± 0.04 |
| AAAUAC | 1.89 ± 0.026 | 1.77 ± 0.048 | – | – |
| UUUGUG | 1.954 ± 0.015 | 1.76 ± 0.031 | 0.449 ± 0.0072 | 0.537 ± 0.024 |
| UACAAA | 1.88 ± 0.063 | 1.755 ± 0.0034 | – | – |
| UACAAC | 1.97 ± 0.035 | 1.82 ± 0.081 | – | – |
| UUUUCC | 1.94 ± 0.03 | 1.935 ± 0.013 | -0.155 ± 0.032 | 0.362 ± 0.077 |
| GAACGU | 1.9 ± 0.037 | 1.688 ± 0.014 | – | – |
| GAAUAU | 1.93 ± 0.043 | 1.8073 ± 0.00093 | – | – |
| AUUGUG | 1.8 ± 0.023 | 1.39 ± 0.034 | 0.0887 ± 0.00064 | 0.469 ± 0.1 |
| AUUGGU | 1.89 ± 0.048 | 1.66 ± 0.084 | 0.357 ± 0.04 | 0.601 ± 0.029 |
| AUUGGA | 1.944 ± 0.0073 | 1.647 ± 0.013 | 0.196 ± 0.12 | 0.374 ± 0.042 |
| AUUGGG | 1.87 ± 0.085 | 1.36 ± 0.03 | 0.0996 ± 0.0053 | 0.592 ± 0.018 |
| CACAAG | 1.877 ± 0.0098 | 1.676 ± 0.013 | – | – |
| CACAAA | 1.8939 ± 0.00066 | 1.76 ± 0.023 | – | – |
| CACAAC | 1.93 ± 0.027 | 1.839 ± 0.018 | – | – |
| CACAAU | 1.89 ± 0.053 | 1.78 ± 0.034 | – | – |
| GUUACU | 1.946 ± 0.0064 | 1.89 ± 0.06 | 0.523 ± 0.11 | 0.466 ± 0.036 |
| GUUACG | 1.88 ± 0.03 | 1.59 ± 0.027 | 0.564 ± 0.075 | 0.566 ± 0.043 |
